Data reported in article PMC9634978 (Molecular Biology of the Cell, 2022).
Positions count from the first letter of the chain named. One block for each binder: values may come before it.

What was measured:
[1] = biological target: T1, his6-Sec18 (S. cerevisiae, UniProt P18759 1-758); assay: liposome co-floatation
T1 sequence (looked up): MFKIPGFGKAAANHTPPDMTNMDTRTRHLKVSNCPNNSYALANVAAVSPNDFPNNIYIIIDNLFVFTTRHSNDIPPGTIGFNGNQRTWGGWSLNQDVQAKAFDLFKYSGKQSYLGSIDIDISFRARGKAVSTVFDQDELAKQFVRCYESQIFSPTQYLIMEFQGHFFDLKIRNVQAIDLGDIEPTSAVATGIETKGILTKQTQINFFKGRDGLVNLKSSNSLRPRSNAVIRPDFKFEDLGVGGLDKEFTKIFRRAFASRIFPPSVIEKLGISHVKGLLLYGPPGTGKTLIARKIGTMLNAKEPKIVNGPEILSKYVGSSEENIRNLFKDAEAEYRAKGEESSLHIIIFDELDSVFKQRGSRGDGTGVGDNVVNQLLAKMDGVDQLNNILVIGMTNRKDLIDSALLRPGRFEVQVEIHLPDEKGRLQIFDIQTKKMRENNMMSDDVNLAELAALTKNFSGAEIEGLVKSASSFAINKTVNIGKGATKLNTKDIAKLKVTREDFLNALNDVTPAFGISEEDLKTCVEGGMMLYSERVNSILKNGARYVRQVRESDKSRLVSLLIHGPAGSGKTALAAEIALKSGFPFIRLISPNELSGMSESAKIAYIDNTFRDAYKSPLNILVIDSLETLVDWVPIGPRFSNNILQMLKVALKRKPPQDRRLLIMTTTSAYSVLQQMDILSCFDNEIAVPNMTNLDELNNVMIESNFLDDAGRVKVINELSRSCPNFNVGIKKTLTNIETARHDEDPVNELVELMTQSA

[2] = biological target: T1, his6-Sec18; assay: liposome co-floatation; remark: listed apart in the source

- binding result [1]: binds
B1: Sec17-K159EK163E (natural protein, S. cerevisiae, UniProt P32602 1-292, looked up)
chain: MSDPVELLKRAEKKGVPSSGFMKLFSGSDSYKFEEAADLCVQAATIYRLRKELNLAGDSFLKAADYQKKAGNEDEAGNTYVEAYKCFKSGGNSVNAVDSLENAIQIFTHRGQFRRGANFKFELGEILENDLHDYAKAIDCYELAGEWYAQDQSVALSNECFIECADLKALDGQYIEASDIYSKLIKSSMGNRLSQWSLKDYFLKKGLCQLAATDAVAAARTLQEGQSEDPNFADSRESNFLKSLIDAVNEGDSEQLSEHCKEFDNFMRLDKWKITILNKIKESIQQQEDDLL

- stoichiometry N [2]: ~3 mol Sec17 per mol Sec18 hexamer
B2: his6-Sec17 (natural protein, S. cerevisiae, UniProt P32602 1-292, looked up)
chain: B1 chain with E159K, E163K
